Source: US5733879A, “Peptides and proteins, process for their preparation and their use as cholesterol acceptors” (N.V. Innogenetics, S.A., priority 1992, dated 1998)
Several values for one entry are separate records, joined by “and”; a condition that tells them apart may be missing. Identical values can stand only once. Where no end group is shown, it is not given here.

How the values were obtained:
[1] = Composition and gel chromatography of the isolated phospholipid-protein complexes; type: physicochemical; conditions: for Composition DPPC/Protein w/w: isolated complex with DPPC, maximum of elution peak
Procedure: Complexes were obtained by incubation of the peptides with dimyristoylphosphatidylcholine (DMPC, Sigma, St Louis, Mo.) vesicles at a DMPC/peptide, w/w ratio of 3/1 at 25° C. for 16 h. Complexes with dipalmitoylphosphatidylcholine (DPPC) were generated by the cholate dialysis procedure (Vanloo et al., 1991). All complexes were isolated by gel chromatography (FIG. 4) on a Superose PG column in a 0.01M Tris-HCl buffer, pH 8.0, 0.15M NaCl, 1 mM NaN3, 0.1 g/L EDTA. The column was first saturated with the phospholipid to avoid dissociation of the lipid-peptide complexes. The complexes were detected by continuous monitoring of the optical density at 280 nm and by measurement of the Trp emission of the fractions on a Jasco SP500 spectrofluorimeter. The composition and size of the complexes, were determined on the two fractions with maximal UV absorption in the elution peak of the complexes. The composition was determined by quantitation of the phospholipids using an enzymatic assay (Biomerieux, France), and of the peptide by an HPLC phenylalanine assay on a C18 reversed-phase column, after hydrolysis (Vanloo et al., 1991).

[2] = tested on: J774 murine macrophages; experiment: Cellular cholesterol efflux from lipid-loaded macrophages; type: cell-based; conditions: for Vmax (cholesterol efflux): phospholipid-peptide complexes, cholesterol-loaded J774 cells, 24 h; for efflux of free cholesterol into the medium: protein concentration of the complex in the medium 100 μg/ml, 24 h incubation
Procedure: J774 murine macrophages are grown in DMEM (Gibco) with addition of 10% fetal calf serum (FCS), in a 5% CO2 atmosphere. Cells are seeded in 35 mm dishes at a density of 2×10^6 /dish, grown for 18 h in 2ml DMEM-10% FCS and used as confluent monolayers. After 18 h, the cells are washed twice with DMEM and incubated with acetylated LDL at a concentration of 100 μg apo B/ml for 24 h in a medium consisting of DMEM and 10% lipoprotein deficient serum (LPDS). LPDS is prepared from fetal cell serum (Gibco) by eliminating all lipoproteins by ultracentrifugation. After loading with cholesteryl esters, cell monolayers are washed with DMEM.
The cholesteryl ester-laden cells are incubated in 2 ml DMEM supplemented with 1 g/l bovine serum albumin and containing the Sandoz 58-035 compound at a concentration of 1 μg/ml medium as inhibitor of the acyl-CoA:cholesterol acyl transferase enzyme (ACAT) in order to prevent the re-esterification of the cellular cholesterol (Brown et at., 1980). The cholesterol acceptors, i.e. the discoidal peptide-lecithin complexes were added to the medium at concentrations varying between 10 and 200 μg peptide/ml and cells were incubated for 24 h.
After incubation, cells are washed once with phosphate buffer pH 7.4, 0.15N NaGl (PBS) containing 2 g/l BSA and twice with PBS alone. Lipid extracts are prepared by addition to the cell pellet of 5 ml hexane/isopropylalcohol (3:2) (Phillips et at., 1987). Fifty μl of a cholesteryl heptadecanoate solution in chloroform at a concentration of 500 μg/ml are added as internal standard for the HPLC quantitation of cholesteryl esters. After vortex-mixing for 3 min and centrifugation at 3000 rpm for 15 rain, the organic phase supernatant is dried, the precipitate is dissolved in 1 ml chloroform and washed three times. The dry residue is finally dissolved in 50 μl of a mixture of chloroform:acetonitrile:isopropylalcohol (1:1:1), of which 20 μl are injected into the HPLC system.
The same extraction procedure is applied to 1 ml of the medium. For quantification of the unesterified cholesterol fraction, beta-sitosterol is used as internal standard according to methods known in the art.
After delipidation, cellular proteins were dissolved in 0.1M NaOH and the proteins were assayed either by the method of Lowry (Lowry et al., 1951) or with the bicinchoninic acid (BCA) reagent using a kit for protein assay manufactured by Pierce (Pierce Europe, oud-Beijerland, Holland). In both cases bovine serum albumin was used as a standard.

[3] = GdmCl denaturation followed by Trp maximal emission wavelength; type: physicochemical; conditions: free peptide or protein
[4] = as above; type: physicochemical; conditions: phospholipid (DMPC) complex
Procedure: The stability of the DMPC-peptide complexes, was compared by following the maximal emission wavelength of the Trp residues after exposure to increasing quantities of GdmCl. For these experiments aliquots of a 8M GdmCl solution were added to the complex in the Tris-HCl buffer described above (see FIG. 3).

[5] = Electron microscopy size measurement of the lipid-peptide complexes; type: physicochemical; conditions: complex with DPPC, from electromicrographs
Procedure: Phospholipid-peptide complexes, at a protein concentration of 150 μg/ml, were negatively stained with a 20 g/l solution of potassium phosphotungstate (pH 7.4). 7 μl of the samples were applied to Formvar carbon-coated grids and examined in a Zeiss EM 10C transmission electron microscope operating at 60 kV. Particle size was determined by measuring 120 discrete particles for each sample. The mean diameter and the size distribution of the complexes were calculated.

[6] = Trp fluorescence emission of peptides and complexes; type: physicochemical; conditions: for Trp maximal emission wavelength, free: free peptide or protein; for Trp maximal emission wavelength upon phospholipid binding: in the phospholipid complex
Procedure: The measurement of the Trp fluorescence emission in the peptides and in the complexes was used to monitor complex formation. The fluorescence measurements were performed on an Aminco SPF-500 spectrofluorimeter equipped with a special adapter (Aminco-J4-9501) for the fluorescence polarisation measurements. The fluorescence polarization of the lipid-peptide complexes labelled with diphenyl hexatriene (DPH) (molar ratio of 500:1 lipid:DPH) was measured as a function of the temperature to detect changes in the fluidity of the phospholipid acyl chains due to lipid-peptide association. The excitation wavelength was set at 365 nm and emission was detected at 427 nm. Temperature scans between 15° and 40° C. were performed with a circulating water bath (Julabo) at a rate of 0.6° C./min.

Row | Substance | Composition DPPC/Protein w/w [1] | Vmax (cholesterol efflux) [2] | efflux of free cholesterol into the medium [2] [µg] | midpoint of the GdmCl denaturation transition, free peptide [3] | midpoint of the GdmCl denaturation, phospholipid complex [4] | Diameter MEAN ± SD [5] [Å] | complex size on Superose PG column ([1]; DPPC complexes, cholate dialysis) | Trp maximal emission wavelength, free [6] | Trp maximal emission wavelength upon phospholipid binding [6] [nm]
1 | EWLEAFYKKVLEKLKELF [M4] | 3/1 | 50 μg cholesterol released from t | 20 | around 0.1 M | 2.5 M | 150 ± 25 |  |  | 
2 | EWLKAEYEKVEEKLKELF [M3] | 4/1 | 77 μg cholesterol released from t |  | around 0.1 M | immediately | 175 ± 55 | much larger |  | 
3 | EWLKAEYEKVLEKLKELF [M2] | 2/1 | 48 μg cholesterol released from t |  | immediately | 3 M | 173 ± 45 |  | 353 nm | 342
4 | EWLKAFYKKVLEKLKELF [M1] | 3/1 | 111 μg cholesterol released from t |  | around 0.3 M | 4 M | 209 ± 33 |  | 341 nm | 335
5 | apo AI: native plasma apo AI purified from human plasma; major apoprotein constituent of HDL | 2/1 | 52 μg cholesterol released from t | ~8 | 1.3 M | 2.5 M | 128 ± 22 |  | 333 nm and 338 nm | 329
